Reference: PMC5859253

How the values were obtained:
Assay in all cases: EMSA
Conditions in all cases: HilD/H-NS EMSA: 10 mM Tris-HCl pH 8, 50 mM KCl, 1 mM DTT, 0.5 mM EDTA, 5% glycerol, 10 ug/ml BSA, ~100 ng DNA, RT 20 min; PhoP EMSA: 20 mM Tris-HCl pH 7.4 …
PhoP-H6 (phosphorylated) = tested on: PhoP-H6 (phosphorylated)
[1] = tested on: H-NS-FH (H-NS-3XFLAG-6XHis) (Escherichia coli EPEC E2348/69)
[2] = tested on: MBP-HilD (Salmonella enterica serovar Typhimurium SL1344?)

Substance | binding (PhoP-H6 (phosphorylated)) | binding [1] | binding [2]
ges promoter | > 6 µM |  | 
grhD1 promoter (PhoP EMSA) | 3 µM |  | 
grhD1 upstream region (HilD/H-NS EMSA) |  | 0.5 µM | > 1 µM
orgB promoter | 3 µM |  | 
sigD regulatory region |  | > 1 µM | > 1 µM
ssrAB regulatory region |  | 0.25 µM | 
